Molecular target: ERK2 (UniProt P63086)
Test: steady-state kinetics, forward and reverse reaction
Conditions: reference: unphosphorylated Ets; sites T38

Ets-1 (Ets; residues 1–138) 1-138 (from UniProt P27577) p-Ets (ERK2-phosphorylated, Mono-Q purified)
other: Km: same; reference 18.0 ± 2.0

— article PMC2868174
